Test results as given in article PMC4422553.

Biological target: His6-tagged Rev-A IN (reticuloendotheliosis virus strain A integrase) (reticuloendotheliosis virus strain A (Rev-A))
Sequence (P03360 752-1152 limits assumed): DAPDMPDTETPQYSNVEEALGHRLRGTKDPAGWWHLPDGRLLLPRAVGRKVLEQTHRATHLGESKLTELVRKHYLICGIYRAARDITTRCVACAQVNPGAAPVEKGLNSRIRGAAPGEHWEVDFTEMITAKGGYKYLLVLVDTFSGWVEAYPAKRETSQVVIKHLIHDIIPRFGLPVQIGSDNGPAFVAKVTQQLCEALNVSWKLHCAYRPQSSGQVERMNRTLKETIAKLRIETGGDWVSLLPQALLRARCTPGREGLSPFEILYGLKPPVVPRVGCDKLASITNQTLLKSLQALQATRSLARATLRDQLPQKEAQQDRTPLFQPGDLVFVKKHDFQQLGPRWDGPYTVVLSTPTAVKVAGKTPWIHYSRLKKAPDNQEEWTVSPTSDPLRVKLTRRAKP

BRD4(462-720), C-terminal fragment of human BRD4 that contains the ET domain (from UniProt O60885-2 462-720) (domain or fragment)
concerted integration (DNA strand transfer) activity of Rev-A IN in vitro with 0.05, 0.15, 0.35, 0.5 μM BRD4 (462–720), against the activity without BRD4 protein: 5 fold
